# Test results reported in US20230279089A1.
# Columns and labels:
# Assay in all cases: cell-based or functional assay
# [1] = molecular target: BMP1/TLL activity in mouse plasma
# [2] = molecular target: endogenous BMP1 of human primary cardiac fibroblasts (human), P13497
# [3] = molecular target: BMP1/TLL activity in human serum
# [4] = molecular target: BMP1/TLL activity in rat plasma
# Chain of endogenous BMP1 of human primary cardiac fibroblasts (human), P13497 (P13497 121-986): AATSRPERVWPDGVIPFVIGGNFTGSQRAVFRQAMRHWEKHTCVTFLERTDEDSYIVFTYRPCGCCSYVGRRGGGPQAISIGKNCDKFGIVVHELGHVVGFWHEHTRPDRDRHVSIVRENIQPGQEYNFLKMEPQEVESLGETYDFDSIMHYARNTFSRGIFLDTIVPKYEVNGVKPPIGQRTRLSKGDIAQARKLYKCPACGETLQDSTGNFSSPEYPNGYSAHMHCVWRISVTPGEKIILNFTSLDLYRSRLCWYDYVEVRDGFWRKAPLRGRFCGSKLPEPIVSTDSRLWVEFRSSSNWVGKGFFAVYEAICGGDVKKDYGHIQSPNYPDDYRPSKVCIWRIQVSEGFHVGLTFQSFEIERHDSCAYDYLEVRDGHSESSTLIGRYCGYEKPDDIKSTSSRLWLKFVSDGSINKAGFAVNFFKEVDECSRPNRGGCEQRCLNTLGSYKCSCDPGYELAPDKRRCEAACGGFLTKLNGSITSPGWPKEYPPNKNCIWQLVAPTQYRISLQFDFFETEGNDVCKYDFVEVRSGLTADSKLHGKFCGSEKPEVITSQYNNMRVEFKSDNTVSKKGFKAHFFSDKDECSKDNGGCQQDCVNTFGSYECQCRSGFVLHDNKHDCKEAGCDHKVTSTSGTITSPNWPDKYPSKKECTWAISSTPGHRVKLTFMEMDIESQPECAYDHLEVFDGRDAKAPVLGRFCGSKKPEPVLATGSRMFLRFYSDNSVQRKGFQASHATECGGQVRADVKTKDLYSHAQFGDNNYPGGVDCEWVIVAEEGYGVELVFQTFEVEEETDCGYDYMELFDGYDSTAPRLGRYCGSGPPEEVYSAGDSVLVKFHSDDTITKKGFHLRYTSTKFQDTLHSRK
"pIC50, FRET enzyme activity, Mouse plasma (n = 1) [1]","pIC50, scar-in-a-jar (SIJ) assay [2]","pIC50, FRET enzyme activity, Human serum (n = 1) [3]","pIC50, FRET enzyme activity, Rat plasma (n = 2) [4]",Binder
7.5,9.8,10.1,,"13Y039-4B06-4334 human variable region on mouse IgG2a LAGA Fc, mouse cKappa (Compound A) (antibody) heavy: QVQLVQSGAEVKKPGASVKVSCKASGYTFLGYYMSWVRQAPGQGLEWMGWINPLSGETNYAQKFQGRVTMTRDTSISTAYMELSRLRSDDTAVYYCARDTGELDGMNWYFDLWGRGTLVTVSSAKTTAPSVYPLAPVCGDTTGSSVTLGCLVKGYFPEPVTLTWNSGSLSSGVHTFPAVLQSDLYTLSSSVTVTSSTWPSQSITCNVAHPASSTKVDKKIEPRGPTIKPCPPCKCPAPNLAGAPSVFIFPPKIKDVLMISLSPIVTCVVVDVSEDDPDVQISWFVNNVEVHTAQTQTHREDYNSTLRVVSALPIQHQDWMSGKEFKCKVNNKDLPAPIERTISKPKGSVRAPQVYVLPPPEEEMTKKQVTLTCMVTDFMPEDIYVEWTNNGKTELNYKNTEPVLDSDGSYFMYSKLRVEKKNWVERNSYSCSVVHEGLHNHHTTKSFSRTPGK light: EIVLTQSPATLSLSPGERATLSCRASQSVSSYLAWYQQKPGQAPRLLIYDASNRATGIPARFSGSGSGTDFTLTISSLEPEDFAVYYCQQSDSWPPTFGGGTKVEIKRADAAPTVSIFPPSSEQLTSGGASVVCFLNNFYPKDINVKWKIDGSERQNGVLNSWTDQDSKDSTYSMSSTLTLTKDEYERHNSYTCEATHKTSTSPIVKSFNRNEC"
,,8.7,9.1,13Y039-4B06-4334 human variable region on rat IgG2b LAGA Fc and rat Kappa (Compound C) (antibody) heavy: QVQLVQSGAEVKKPGASVKVSCKASGYTFLGYYMSWVRQAPGQGLEWMGWINPLSGETNYAQKFQGRVTMTRDTSISTAYMELSRLRSDDTAVYYCARDTGELDGMNWYFDLWGRGTLVTVSSAQTTAPSVYPLAPGCGDTTSSTVTLGCLVKGYFPEPVTVTWNSGALSSDVHTFPAVLQSGLYTLTSSVTSSTWPSQTVTCNVAHPASSTKVDKKVERRNGGIGHKCPTCPTCHKCPVPELAGAPSVFIFPPKPKDILLISQNAKVTCVVVDVSEEEPDVQFSWFVNNVEVHTAQTQPREEQYNSTFRVVSALPIQHQDWMSGKEFKCKVNNKALPSPIEKTISKPKGLVRKPQVYVMGPPTEQLTEQTVSLTCLTSGFLPNDIGVEWTSNGHIEKNYKNTEPVMDSDGSFFMYSKLNVERSRWDSRAPFVCSVVHEGLHNHHVEKSISRPPGK light: EIVLTQSPATLSLSPGERATLSCRASQSVSSYLAWYQQKPGQAPRLLIYDASNRATGIPARFSGSGSGTDFTLTISSLEPEDFAVYYCQQSDSWPPTFGGGTKVEIKRADAAPTVSIFPPSTEQLATGGASVVCLMNNFYPRDISVKWKIDGTERRDGVLDSVTDQDSKDSTYSMSSTLSLTKADYESHNLYTCEVVHKTSSSPVVKSFNRNEC
